One block for each binder: values may come before it.
Columns and labels:
[1] = target: T1, Rat neuropilin-1 on AT3.1 Dunning rat prostate carcinoma cells (rat, UniProt Q9QWJ9 22-922); test: 125I-VEGF165 cross-linking to AT3.1 rat prostate carcinoma cells
T1 construct: whole, on cells; also called VEGF165R/NP-1 (AT3.1 cells)

[2] = target: T2, Human VEGF165R/NP-1 (neuropilin-1) (human, UniProt O14786 22-923); test: cell-based or functional assay
[3] = target: T2, Human VEGF165R/NP-1 (neuropilin-1); test: Scatchard analysis (LIGAND program) of 125I-VEGF165 binding to PAE/NP-1 cells
Procedure: FIGS. 7A and 7B show a Scatchard Analysis of VEGF₁₆₅ binding to VEGF₁₆₅R/NP-1. […] Increasing amounts of ¹²⁵I-VEGF₁₆₅ (0.1-50 ng ml) were added to subconfluent cultures of PAE cells transfected with human VEGF₁₆₅R/NP-1 cDNA (PAE/NP-1 cells) in 48 well dishes. Non-specific binding was determined by competition with a 200-fold excess of unlabeled VEGF₁₆₅. After binding, the cells were washed, lysed and the cell-associated radioactivity was determined using a counter.
The specific activity ranged from 40,000-100,000 cpm/ng protein. […] VEGF binding was quantitated by measuring the cell-associated radioactivity in a y-counter (Beckman, Gamma 5500). The counts represent the average of three wells. All experiments were repeated at least three times and similar results where obtained.

[4] = target: T3, Human NP-2 (neuropilin-2) (human, UniProt O60462 21-931); test: expression cloning: COS-7 cells transfected with single cDNA clones, screened for 125I-VEGF165 binding; seven positive clones, of which this one is NP-2
T3 construct: The open reading frame has 931 amino acids
T3 sequence: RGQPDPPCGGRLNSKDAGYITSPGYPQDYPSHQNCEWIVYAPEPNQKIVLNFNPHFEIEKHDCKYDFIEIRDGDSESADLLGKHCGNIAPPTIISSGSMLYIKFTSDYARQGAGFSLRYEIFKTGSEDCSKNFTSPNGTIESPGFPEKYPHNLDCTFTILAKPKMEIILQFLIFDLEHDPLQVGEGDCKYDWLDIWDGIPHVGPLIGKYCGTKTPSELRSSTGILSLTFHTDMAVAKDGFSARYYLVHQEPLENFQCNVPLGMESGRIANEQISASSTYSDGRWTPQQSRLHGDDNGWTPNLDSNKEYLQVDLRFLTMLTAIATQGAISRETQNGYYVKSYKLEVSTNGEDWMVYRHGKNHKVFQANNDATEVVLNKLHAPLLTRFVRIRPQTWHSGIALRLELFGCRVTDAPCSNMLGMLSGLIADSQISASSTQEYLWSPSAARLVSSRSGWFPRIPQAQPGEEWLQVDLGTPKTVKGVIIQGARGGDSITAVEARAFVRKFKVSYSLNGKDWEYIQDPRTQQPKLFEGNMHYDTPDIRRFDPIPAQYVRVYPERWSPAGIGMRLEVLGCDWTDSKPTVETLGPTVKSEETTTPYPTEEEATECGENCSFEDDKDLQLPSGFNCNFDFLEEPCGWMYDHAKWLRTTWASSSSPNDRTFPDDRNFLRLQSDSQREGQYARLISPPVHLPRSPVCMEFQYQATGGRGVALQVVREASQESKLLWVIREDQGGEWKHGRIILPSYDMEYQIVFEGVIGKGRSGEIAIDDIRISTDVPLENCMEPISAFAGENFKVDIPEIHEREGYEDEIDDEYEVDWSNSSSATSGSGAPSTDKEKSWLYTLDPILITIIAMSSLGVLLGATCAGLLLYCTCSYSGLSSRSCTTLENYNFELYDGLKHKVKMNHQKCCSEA
Procedure: Seven positive DNA pools were identified and DNA from one of the positive pools was used to transform E. coli. The E. coli were sub-divided into 50 separate pools and plated onto 50 LB ampicillin dishes, with each pool representing approximately 100 clones. DNA made from these pools was transfected into COS-7 cells which were screened for ¹²⁵I-VEGF₁₆₅ binding as described above. […] Each pool was plated onto separate LB ampicillin dishes and DNA was prepared from 96 individual colonies and screened in a 96-well two dimensional grid for ¹²⁵I-VEGF₁₆₅ binding to transfected COS-7 cells as described above. […] The seven positive plasmid clones where amplified and their DNA was analyzed by restriction enzyme digestion. […] One clone from each group was submitted for automated DNA sequencing.
E. coli transformed with the plasmid library were divided into pools. The DNA prepared from each pool were transfected into COS-7 cells in separate wells and individual cells were screened for the ability to bind ¹²⁵I-VEGF₁₆₅ as detected by autoradiography of monolayers overlayed with photographic emulsion (FIG. 2A).

[5] = target: T4, KDR (UniProt P35968 20-1356, limits assumed); test: 125I-collapsin-1 binding to PAE/KDR cells
T4 construct: whole, on cells; also called KDR/Flk-1

[6] = target: T2, Human VEGF165R/NP-1 (neuropilin-1); test: 125I-VEGF121 binding and chemical cross-linking to PAE/NP-1 cells, SDS-PAGE and autoradiography, 1 µg/ml heparin
Excerpt: The cells were lysed and proteins were resolved by 6% SDS-PAGE.

T4 sequence (P35968 20-1356 limits assumed): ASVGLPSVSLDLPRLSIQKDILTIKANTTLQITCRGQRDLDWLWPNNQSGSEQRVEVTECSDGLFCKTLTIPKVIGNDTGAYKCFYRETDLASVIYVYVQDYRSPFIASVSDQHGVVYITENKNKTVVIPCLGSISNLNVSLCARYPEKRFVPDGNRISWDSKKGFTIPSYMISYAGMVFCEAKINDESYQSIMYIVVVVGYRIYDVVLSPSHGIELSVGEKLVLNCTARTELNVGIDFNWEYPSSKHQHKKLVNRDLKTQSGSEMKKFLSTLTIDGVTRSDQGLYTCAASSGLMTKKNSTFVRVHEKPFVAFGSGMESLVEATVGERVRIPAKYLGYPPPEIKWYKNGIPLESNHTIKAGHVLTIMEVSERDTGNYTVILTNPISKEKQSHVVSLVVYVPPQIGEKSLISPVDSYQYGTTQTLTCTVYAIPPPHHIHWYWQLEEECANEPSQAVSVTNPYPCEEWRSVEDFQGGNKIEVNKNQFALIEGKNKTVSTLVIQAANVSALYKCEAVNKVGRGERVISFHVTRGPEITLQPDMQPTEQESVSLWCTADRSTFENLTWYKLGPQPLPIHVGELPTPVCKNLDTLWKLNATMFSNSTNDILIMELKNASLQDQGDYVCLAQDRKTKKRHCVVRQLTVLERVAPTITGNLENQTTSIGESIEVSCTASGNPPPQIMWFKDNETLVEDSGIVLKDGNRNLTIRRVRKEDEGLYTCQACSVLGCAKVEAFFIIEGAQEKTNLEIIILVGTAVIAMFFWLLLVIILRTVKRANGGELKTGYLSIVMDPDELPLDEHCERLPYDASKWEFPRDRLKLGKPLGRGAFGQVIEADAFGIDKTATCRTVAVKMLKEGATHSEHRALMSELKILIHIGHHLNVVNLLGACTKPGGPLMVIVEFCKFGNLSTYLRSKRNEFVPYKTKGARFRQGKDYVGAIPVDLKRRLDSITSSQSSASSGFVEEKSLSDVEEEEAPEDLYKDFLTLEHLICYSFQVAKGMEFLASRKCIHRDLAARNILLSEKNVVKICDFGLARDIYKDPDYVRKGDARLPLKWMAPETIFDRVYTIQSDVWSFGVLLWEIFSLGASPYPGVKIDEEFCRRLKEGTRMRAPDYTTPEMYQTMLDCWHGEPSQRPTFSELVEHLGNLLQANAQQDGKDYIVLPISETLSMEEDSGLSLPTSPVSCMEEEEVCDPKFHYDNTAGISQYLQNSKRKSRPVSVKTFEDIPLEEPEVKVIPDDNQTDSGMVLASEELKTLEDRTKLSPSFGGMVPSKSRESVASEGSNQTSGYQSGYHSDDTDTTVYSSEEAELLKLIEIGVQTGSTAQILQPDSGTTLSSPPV

binding result [1]: binds
stimulation of 231 breast carcinoma cell motility, Boyden chamber, VEGF165 50 ng/ml [2]: 2 fold
Kd [3]: ~0.32 nM
binding result [4]: binds
B1: Human recombinant VEGF165 (ligand, UniProt P15692-4 27-191, looked up)
chain: APMAEGGGQNHHEVVKFMDVYQRSYCHPIETLVDIFQEYPDEIEYIFKPSCVPLMRCGGCCNDEGLECVPTEESNITMQIMRIKPHQGQHIGEMSFLQHNKCECRPKKDRARQENPCGPCSERRKHLFVQDPQTCKCSCKNTDSRCKARQLELNERTCRCDKPRR
modifications: radio-iodinated (125I) using IODO-BEADS in the binding and cross-linking experiments
notes: mature

binding result [5]: no binding
B2: Recombinant chick collapsin-1 (semaphorin III) (ligand, UniProt Q90607 23-772, looked up)
chain: QHVKNNVPRLKLSYKEMLESNNIVNFNGLANSSSYHTFLLDEERSRLYVGAKDHIFSFNLVNIKEYQKIVWPVSHSRRDECKWAGKDILRECANFIKVLKTYNQTHLYACGTGAFHPMCTYIEVGSHPEDNIFRMEDSHFENGRGKSPYDPKLLTASLLVDGELYSGTAADFMGRDFAIFRTLGHHHPIRTEQHDSRWLNDPRFISAHLIPESDNPEDDKIYFFFRENAIDGEHTGKATHARIGQICKNDFGGHRSLVNKWTTFLKARLICSVPGPNGIDTHFDELQDVFLMNSKDPKNPIVYGVFTTSSNIFKGSAVCMYSMTDVRRVFLGPYAHRDGPNYQWVPYQGRVPYPRPGTCPSKTFGGFDSTKDLPDEVITFARSHPAMYNPVFPINSRPIMIKTDVDYQFTQIVVDRVDAEDGQYDVMFIGTDIGTVLKVVSIPKETWHELEEVLLEEMTVFREPTVISAMKISTKQQQLYIGSATGVSQLPLHRCDVYGKACAECCLARDPYCAWDGSSCSRYFPTAKRRTRRQDIRNGDPLTHCSDLQHHDNPSGQTLEEKIIYGVENSSTFLECSPKSQRAIVYWQFQKQNDDHKVEIKVDDRMIRTEQGLLLRSLQRRDSGIYFCHAVEHGFIQTLLKVTLEVIDTDHLEELLHKEEDADASKTKDATNSMTPSQKIWYRDFMQLINHPNLNTMDEFCEQVWKRDRKQRRQRPANAQVNTNKWKHLQENKKGRNRRTHEFERAPRSV
modifications: 125I-labelled in the binding studies

binding result [6]: no binding (tested: 10 ng/ml)
B3: Human recombinant VEGF121 (ligand, UniProt P15692-9 27-147, looked up)
chain: APMAEGGGQNHHEVVKFMDVYQRSYCHPIETLVDIFQEYPDEIEYIFKPSCVPLMRCGGCCNDEGLECVPTEESNITMQIMRIKPHQGQHIGEMSFLQHNKCECRPKKDRARQEKCDKPRR
modifications: radio-iodinated (125I) using IODO-BEADS in the cross-linking experiments
notes: mature
